Test results reported in PMC8624677 (The Journal of Cell Biology, 2021).
Substitutions are numbered along the chain they refer to. In names and notes the source's numbering stands.

B1: cyt-ATL2 H462C (also C59A, C143A, C395N, and C441A) (domain or fragment, human, UniProt Q8NHH9 1-467, looked up)
chain: MAEGDEAARGQQPHQGLWRRRRTSDPSAAVNHVSSTTSLGENYEDDDLVNSDEVMKKPAPVQIVLAHEDDHNFELDEEALEQILLQEHIRDLNIVVVSVAGAFRKGKSFLLDFMLRYMYNKDSQSWIGGNNEPLTGFTWRGGAERETTGIQVWNEVFVIDRPNGTKVAVLLMDTQGAFDSQSTIKDCATVFALSTMTSSVQVYNLSQNIQEDDLQHLQLFTEYGRLAMEEIYQKPFQTLMFLIRDWSYPYEHSYGLEGGKQFLEKRLQVKQNQHEELQNVRKHIHNCFSNLGCFLLPHPGLKVATNPSFDGRLKDIDEDFKRELRNLVPLLLAPENLVEKEISGSKVTCRDLVEYFKAYIKIYQGEELPHPKSMLQATAEANNLAAVAGARDTYNKSMEQVCGGDKPYIAPSDLERKHLDLKEVAIKQFRSVKKMGGDEFARRYQDQLEAEIEETYANFIKCNDGKN
modifications: Cy3 maleimide on the engineered 3HB cysteine H462C
B2: cyt-ATL1 H435C (domain or fragment, human, UniProt Q8WXF7 1-446, looked up)
chain: MAKNRRDRNSWGGFSEKTYEWSSEEEEPVKKAGPVQVLIVKDDHSFELDETALNRILLSEAVRDKEVVAVSVAGAFRKGKSFLMDFMLRYMYNQESVDWVGDYNEPLTGFSWRGGSERETTGIQIWSEIFLINKPDGKKVAVLLMDTQGTFDSQSTLRDSATVFALSTMISSIQVYNLSQNVQEDDLQHLQLFTEYGRLAMEETFLKPFQSLIFLVRDWSFPYEFSYGADGGAKFLEKRLKVSGNQHEELQNVRKHIHSCFTNISCFLLPHPGLKVATNPNFDGKLKEIDDEFIKNLKILIPWLLSPESLDIKEINGNKITCRGLVEYFKAYIKIYQGEELPHPKSMLQATAEANNLAAVATAKDTYNKKMEEICGGDKPFLAPNDLQTKHLQLKEESVKLFRGVKKMGGEEFSRRYLQQLESEIDELYIQYIKCNDSKNIFHAAR
modifications: Cy3 maleimide on the engineered 3HB cysteine H435C
B3: cyt-DATL H410C (domain or fragment)
chain: MGGSAVQVINASEEHTFVLNEDALSEVLMRDEVKDRFVCVVSVAGAFRKGKSFLLDFFLRYMYSKYVHHDATDWLGGESDPLEGFSWRGGSERDTTGILMWSDIFLHDYPNGDKIAIILLDTQGAFDSQSTVRDCATVFALSTMLSSVQIYNLSQNIQEDDLQHLQLFTEYGRLALADTGKKPFQRLQFLVRDWSFPYEAEYGALGGDKILKRRLEVSDKQHPELQSLRRHISSCFTEVACFLMPHPGLNVATNPKFDGRLQDITPEFKSSLRSLVPMLLAPDNLVYKEISGQRVRARDLIQYFQSYMNIYKGNELPEPKSMLVATAEANHLTAVAAAKELYGQLMEEVCGGTRPYLSTAHLQTEHLRVKDKALFQFAAKRKMGGEEFTEKFRKQLEDDLEEVFTNYQACNESKN
modifications: Cy3 maleimide on the engineered 3HB cysteine H410C
B4: cyt-ATL2(1–467) S308C (also C59A, C143A, C395N, and C441A) (domain or fragment, human, UniProt Q8NHH9 1-467, looked up)
chain: B1 chain with S308C, C462H
modifications: Alexa Fluor 488 (donor) or 647 (acceptor) maleimide on the engineered G-domain cysteine S308C
B5: cyt-ATL1(1–446) N281C (domain or fragment, human, UniProt Q8WXF7 1-446, looked up)
chain: B2 chain with N281C, C435H
modifications: Alexa Fluor 488 (donor) or 647 (acceptor) maleimide on the engineered G-domain cysteine N281C
B6: cyt-DATL(1–415) S270C (domain or fragment)
chain: B3 chain with S270C, C410H
modifications: Alexa Fluor 488 (donor) or 647 (acceptor) maleimide on the engineered G-domain cysteine S270C

Target: the molecule itself
Assay: PIFE
B1: binds. B2: binds. B3: binds.

Target: the molecule itself
Assay: FRET or BRET
B4: binds. B5: binds. B6: binds.
